From patent publication US20250304650A1
Substitutions are numbered along the chain they refer to. Names may count otherwise.

B1: anti-NGF feline IgG1a, Fc variant S434Y, S254K (antibody, part only; not given: anti-NGF variable domains, light chain, not shown: another chain or arm of the molecule; small tags and cut ends)
Fc: PPEMLGGPSIFIFPPKPKDTLSIKRTPEVTCLVVDLGPDDSDVQITWFVDNTQVYTAKTSPREEQFNSTYRVVSVLPILHQDWLKGKEFKCKVNSKSLPSPIERTISKAKGQPHEPQVYVLPPAQEELSRNKVSVTCLIKSFHPPDIAVEWEITGQPEPENNYRTTPPQLDSDGTYFVYSKLSVDRSHWQRGNTYTCSVSHEALHYHHTQKSLTQSPGK
B2: anti-NGF feline IgG1a, Fc variant S434Y, L262E (antibody, part only; not given: Anti-NGF variable domains, not shown: another chain or arm of the molecule; small tags and cut ends)
Fc: B1 Fc with K24S, L32E
B3: anti-NGF feline IgG1a, Fc variant S434Y, T286D (antibody, part only; not given: anti-NGF variable domains, not shown: another chain or arm of the molecule; small tags and cut ends)
Fc: B1 Fc with K24S, T56D
B4: anti-NGF feline IgG1a, Fc variant S434Y, T286E (antibody, part only; not given: anti-NGF variable domains, light chain, not shown: another chain or arm of the molecule; small tags and cut ends)
Fc: B1 Fc with K24S, T56E
B5: anti-NGF feline IgG1a, Fc variant S434Y, T289K (antibody, part only; not given: Anti-NGF variable domains, not shown: another chain or arm of the molecule; small tags and cut ends)
Fc: B1 Fc with K24S, T59K
B6: anti-NGF feline IgG1a, Fc variant S434Y, E293D (antibody, part only; not given: anti-NGF variable domains, light chain, not shown: another chain or arm of the molecule; small tags and cut ends)
Fc: B1 Fc with K24S, E63D
B7: anti-NGF feline IgG1a, Fc variant S434Y, E293K (antibody, part only; not given: anti-NGF variable domains, light chain, not shown: another chain or arm of the molecule; small tags and cut ends)
Fc: B1 Fc with K24S, E63K
B8: anti-NGF feline IgG1a, Fc variant S434Y, L309V (antibody, part only; not given: anti-NGF variable domains, light chain, not shown: another chain or arm of the molecule; small tags and cut ends)
Fc: B1 Fc with K24S, L79V
B9: anti-NGF feline IgG1a, Fc variant S434Y, L309E (antibody, part only; not given: Anti-NGF variable domains, not shown: another chain or arm of the molecule; small tags and cut ends)
Fc: B1 Fc with K24S, L79E
B10: anti-NGF feline IgG1a, Fc variant S434Y, K326D (antibody, part only; not given: anti-NGF variable domains, light chain, not shown: another chain or arm of the molecule; small tags and cut ends)
Fc: B1 Fc with K24S, K96D
B11: anti-NGF feline IgG1a, Fc variant S434Y, Q347L (antibody, part only; not given: Anti-NGF variable domains, not shown: another chain or arm of the molecule; small tags and cut ends)
Fc: B1 Fc with K24S, Q117L
B12: anti-NGF feline IgG1a, Fc variant S434F (antibody, part only; not given: anti-NGF variable domains, light chain, not shown: another chain or arm of the molecule; small tags and cut ends)
Fc: B1 Fc with K24S, Y206F
B13: anti-NGF feline IgG1a, Fc variant S434F, E380D (antibody, part only; not given: anti-NGF variable domains, light chain, not shown: another chain or arm of the molecule; small tags and cut ends)
Fc: B1 Fc with K24S, E150D, Y206F
B14: anti-NGF feline IgG1a, Fc variant S428L (antibody, part only; not given: Anti-NGF variable domains, not shown: another chain or arm of the molecule; small tags and cut ends)
Fc: B1 Fc with K24S, S200L, Y206S
B15: anti-NGF feline IgG1a, Fc variant S428L, S252R (antibody, part only; not given: anti-NGF variable domains, not shown: another chain or arm of the molecule; small tags and cut ends)
Fc: B1 Fc with S22R, K24S, S200L, Y206S
B16: anti-NGF feline IgG1a, Fc variant S428L, T286E (antibody, part only; not given: anti-NGF variable domains, not shown: another chain or arm of the molecule; small tags and cut ends)
Fc: B1 Fc with K24S, T56E, S200L, Y206S
B17: anti-NGF feline IgG1a, Fc variant S428L, Q311V (antibody, part only; not given: Anti-NGF variable domains, not shown: another chain or arm of the molecule; small tags and cut ends)
Fc: B1 Fc with K24S, Q81V, S200L, Y206S
B18: anti-NGF feline IgG1a, Fc variant S428L, Q311K (antibody, part only; not given: anti-NGF variable domains, light chain, not shown: another chain or arm of the molecule; small tags and cut ends)
Fc: B1 Fc with K24S, Q81K, S200L, Y206S
B19: anti-NGF feline IgG1a, Fc variant S428L, D312T (antibody, part only; not given: anti-NGF variable domains, not shown: another chain or arm of the molecule; small tags and cut ends)
Fc: B1 Fc with K24S, D82T, S200L, Y206S
B20: anti-NGF feline IgG1a, Fc variant S428L, I377V (antibody, part only; not given: anti-NGF variable domains, not shown: another chain or arm of the molecule; small tags and cut ends)
Fc: B1 Fc with K24S, I147V, S200L, Y206S
B21: anti-NGF feline IgG1a, Fc variant S428L, I383L (antibody, part only; not given: anti-NGF variable domains, light chain, not shown: another chain or arm of the molecule; small tags and cut ends)
Fc: B1 Fc with K24S, I153L, S200L, Y206S
B22: anti-NGF feline IgG1a, Fc variant S428L, N389c-R (antibody, part only; not given: anti-NGF variable domains, light chain, not shown: another chain or arm of the molecule; small tags and cut ends)
Fc: B1 Fc with K24S, N161R, S200L, Y206S
B23: anti-NGF feline IgG1a, Fc variant S428L, E380D, S434R (antibody, part only; not given: Anti-NGF variable domains, not shown: another chain or arm of the molecule; small tags and cut ends)
Fc: B1 Fc with K24S, E150D, S200L, Y206R
B24: anti-NGF feline IgG1a, Fc variant S428L, E380T, S434R (antibody, part only; not given: anti-NGF variable domains, not shown: another chain or arm of the molecule; small tags and cut ends)
Fc: B1 Fc with K24S, E150T, S200L, Y206R

The binders below were run against feline FcRn (FCN-F82W3, Acrobiosystems) (feline) (assay: SPR Carterra, IgG coupled, pH 6.0).
B1 gave a Kd of 3.1 nM, a koff of 0.00504 s⁻¹ and a kon of 1.61e+06 M⁻¹ s⁻¹.
Work on B2 yielded a Kd of 3.3 nM, a koff of 0.00498 s⁻¹ and a kon of 1.51e+06 M⁻¹ s⁻¹.
B3 was tested, and the Kd was 2.9 nM, the koff was 0.00371 s⁻¹ and the kon was 1.28e+06 M⁻¹ s⁻¹.
Binder B4 has a Kd of 3.6 nM, a koff of 0.00345 s⁻¹ and a kon of 965000 M⁻¹ s⁻¹.
Work on B5 yielded a Kd of 3.6 nM, a koff of 0.00559 s⁻¹ and a kon of 1.53e+06 M⁻¹ s⁻¹.
With B6 the Kd was 3.4 nM, the koff was 0.00534 s⁻¹ and the kon was 1.57e+06 M⁻¹ s⁻¹.
B7 showed a Kd of 4.1 nM, a koff of 0.00501 s⁻¹ and a kon of 1.22e+06 M⁻¹ s⁻¹.
B8 was tested, and the Kd was 1.8 nM, the koff was 0.004 s⁻¹ and the kon was 2.21e+06 M⁻¹ s⁻¹.
With B9 the Kd was 4.1 nM, the koff was 0.00458 s⁻¹ and the kon was 1.13e+06 M⁻¹ s⁻¹.
B10 was tested, and the Kd was 4 nM, the koff was 0.00549 s⁻¹ and the kon was 1.38e+06 M⁻¹ s⁻¹.
B11 showed a Kd of 3.4 nM, a koff of 0.00667 s⁻¹ and a kon of 1.98e+06 M⁻¹ s⁻¹.
B12 gave a Kd of 4.2 nM, a koff of 0.00718 s⁻¹ and a kon of 1.73e+06 M⁻¹ s⁻¹.
B13 showed a Kd of 3.3 nM, a koff of 0.00583 s⁻¹ and a kon of 1.77e+06 M⁻¹ s⁻¹.
With B14 the Kd was 16.7 nM, the koff was 0.0241 s⁻¹ and the kon was 1.45e+06 M⁻¹ s⁻¹.
B15 showed a Kd of 9 nM, a koff of 0.00873 s⁻¹ and a kon of 974000 M⁻¹ s⁻¹.
With B16 the Kd was 8.6 nM, the koff was 0.00987 s⁻¹ and the kon was 1.15e+06 M⁻¹ s⁻¹.
B17 showed a Kd of 11.7 nM, a koff of 0.0107 s⁻¹ and a kon of 916000 M⁻¹ s⁻¹.
Work on B18 yielded a Kd of 10.5 nM, a koff of 0.0101 s⁻¹ and a kon of 958000 M⁻¹ s⁻¹.
With B19 the Kd was 11.2 nM, the koff was 0.0113 s⁻¹ and the kon was 1.01e+06 M⁻¹ s⁻¹.
Work on B20 yielded a Kd of 10.8 nM, a koff of 0.0183 s⁻¹ and a kon of 1.69e+06 M⁻¹ s⁻¹.
B21 was tested, and the Kd was 9.9 nM, the koff was 0.0162 s⁻¹ and the kon was 1.63e+06 M⁻¹ s⁻¹.
Work on B22 yielded a Kd of 9.6 nM, a koff of 0.0109 s⁻¹ and a kon of 1.14e+06 M⁻¹ s⁻¹.
In the case of B23, the Kd is reported as 8 nM, the koff is reported as 0.00973 s⁻¹ and the kon is reported as 1.22e+06 M⁻¹ s⁻¹.
Work on B24 yielded a Kd of 3.8 nM, a koff of 0.012 s⁻¹ and a kon of 3.17e+06 M⁻¹ s⁻¹.
